# Where no end group is shown, it is not given here. 3xPEG = linker of three PEG units
# Experiments:
# [1] = molecular target: mouse PKA-Cα (PKA catalytic subunit alpha), purified (mouse, UniProt P05132 1-351); experiment: fluorescence polarisation
# [2] = molecular target: human PKA-Cα (PKA catalytic subunit alpha), purified, used in fluorescence polarization (human, UniProt P17612 1-351); experiment: fluorescence polarisation
binder,measurement,setting,value
{FAM-3xPEG}-SADVSSAWAQHVTKMVARRGAILP [FAM-labeled standard SMO PKI peptide (SMO residues 615–638)],Kd,[1],0.911 µM
same,Kd,[2],0.823 µM
